Assay results from patent publication US11898181B2, “Genetically modified isopropylmalate isomerase enzyme complexes and processes to prepare elongated 2-ketoacids and C5-C10 compounds therewith” (Dow Global Technologies LLC, priority 2017, dated 2022).
Residue numbers refer to the chain shown, from its start. Numbers in names are those of the source.

Experiments:
Assay type in all cases: biochemical, E. coli
[1] = substrate: CCCCC(O)(CC(=O)O)C(=O)O; assay: Kinetic analysis of LeuCD (LeuB-coupled HTP assay), Variant 6; conditions: other: 2-BM 0-5 mM, pH 8, room temperature, 30 min
[2] = substrate: CCCCCCC(O)(CC(=O)O)C(=O)O; assay: as above; conditions: other: 2-HM 0-1.6 mM, pH 8, room temperature, 30 min
[3] = substrate: CC(C)[C@@](O)(CC(=O)O)C(=O)O; assay: Kinetic analysis of LeuCD (LeuB-coupled HTP assay), Variant 3 (wild type); conditions: other: 2-IPM 0-0.625 mM, pH 8, room temperature, 30 min
[4] = substrate: CCCCC(O)(CC(=O)O)C(=O)O; assay: as above; conditions: other: 2-BM 0-5 mM, pH 8, room temperature, 30 min
[5] = substrate: CCCCCCC(O)(CC(=O)O)C(=O)O; assay: as above; conditions: other: 2-HM 0-1.6 mM, pH 8, room temperature, 30 min
[6] = substrate: CCCCC(O)(CC(=O)O)C(=O)O; assay: Kinetic analysis of LeuCD (LeuB-coupled HTP assay), Variant 59; conditions: other: 2-BM 0-5 mM, pH 8, room temperature, 30 min
[7] = substrate: CCCCCCC(O)(CC(=O)O)C(=O)O; assay: as above; conditions: other: 2-HM 0-1.6 mM, pH 8, room temperature, 30 min
[8] = substrate: CCCCC(O)(CC(=O)O)C(=O)O; assay: Kinetic analysis of LeuCD (LeuB-coupled HTP assay), Variant 61; conditions: other: 2-BM 0-5 mM, pH 8, room temperature, 30 min
[9] = substrate: CCCCCCC(O)(CC(=O)O)C(=O)O; assay: as above; conditions: other: 2-HM 0-1.6 mM, pH 8, room temperature, 30 min
[10] = substrate: CCCCC(O)(CC(=O)O)C(=O)O; assay: Kinetic analysis of LeuCD (LeuB-coupled HTP assay), Variant 1; conditions: other: 2-BM 0-5 mM, pH 8, room temperature, 30 min
[11] = substrate: CCCCCCC(O)(CC(=O)O)C(=O)O; assay: as above; conditions: other: 2-HM 0-1.6 mM, pH 8, room temperature, 30 min
[12] = substrate: CCCCC(O)(CC(=O)O)C(=O)O; assay: Kinetic analysis of LeuCD (LeuB-coupled HTP assay), Variant 5; conditions: other: 2-BM 0-5 mM, pH 8, room temperature, 30 min
[13] = substrate: CCCCCCC(O)(CC(=O)O)C(=O)O; assay: as above; conditions: other: 2-HM 0-1.6 mM, pH 8, room temperature, 30 min
[14] = substrate: CCCCC(O)(CC(=O)O)C(=O)O; assay: Kinetic analysis of LeuCD (LeuB-coupled HTP assay), Variant 9; conditions: other: 2-BM 0-5 mM, pH 8, room temperature, 30 min
[15] = substrate: CCCCCCC(O)(CC(=O)O)C(=O)O; assay: as above; conditions: other: 2-HM 0-1.6 mM, pH 8, room temperature, 30 min

B1: E. coli isopropylmalate isomerase LeuCD complex, Variant 6 (wt LeuC + L31G-LeuD; parents SEQ ID NO: 1 and SEQ ID NO: 2) (Escherichia coli K-12; L31G) (protein)
chain 1: MGSSHHHHHHSSGMAKTLYEKLFDAHVVYEAENETPLLYIDRHLVHEVTSPQAFDGLRAHGRPVRQPGKTFATMDHNVSTQTKDINACGEMARIQMQELIKNCKEFGVELYDLNHPYQGIVHVMGPEQGVTLPGMTIVCGDSHTATHGAFGALAFGIGTSEVEHVLATQTLKQGRAKTMKIEVQGKAAPGITAKDIVLAIIGKTGSAGGTGHVVEFCGEAIRDLSMEGRMTLCNMAIEMGAKAGLVAPDETTFNYVKGRLHAPKGKDFDDAVAYWKTLQTDEGATFDTVVTLQAEEISPQVTWGTNPGQVISVNDNIPDPASFADPVERASAEKALAYMGLKPGIPLTEVAIDKVFIGSCTNSRIEDLRAAAEIAKGRKVAPGVQALVVPGSGPVKAQAEAEGLDKIFIEAGFEWRLPGCSMCLAMNNDRLNPGERCASTSNRNFEGRQGRGGRTHLVSPAMAAAAAVTGHFADIRNIK
chain 2: MAEKFIKHTGLVVPLDAANVDTDAIIPKQFGQKVTRTGFGAHLFNDWRFLDEKGQQPNPDFVLNFPQYQGASILLARENFGCGSSREHAPWALTDYGFKVVIAPSFADIFYGNSFNNQLLPVKLSDAEVDELFALVKANPGIHFDVDLEAQEVKAGEKTYRFTIDAFRRHCMMNGLDSIGLTLQHDDAIAAYEAKQPAFMN
notes: expression of a His-tagged LeuC having 13 additional amino acids on the N-terminus; made in house; host or cells: E. coli BL21(DE3), whole cell lysate
**Q.** B1 was tested. Which Km [1] did it give?
**A.** Its Km is 8440 ± 2400 µM.

**Q.** And the kcat [1]?
**A.** Its kcat is 0.132 ± 0.0333 s⁻¹.

**Q.** And the kcat/Km [1]?
**A.** The kcat/Km was 17.2 ± 6.67 M⁻¹ s⁻¹.

**Q.** What about the Km [2] of the same protein?
**A.** Its Km is 650 ± 40 µM.

**Q.** What about the kcat [2] of the same protein?
**A.** Its kcat is 0.3436 ± 0.00944 s⁻¹.

**Q.** And the kcat/Km [2]?
**A.** Its kcat/Km is 532.5 ± 35.8 M⁻¹ s⁻¹.

B2: E. coli isopropylmalate isomerase LeuCD complex, wild type (Variant 3: Wt LeuC, SEQ ID NO: 1 + Wt LeuD, SEQ ID NO: 2) (Escherichia coli K-12) (protein)
chain 1: B1 chain 1
chain 2: B1 chain 2 with G31L
notes: as for B1
**Q.** What does the source list for B2?
**A.** Km [3]: 68 ± 10 µM; kcat [3]: 0.4239 ± 0.0161 s⁻¹; kcat/Km [3]: 6212.8 ± 659.7 M⁻¹ s⁻¹; Km [4]: 1330 ± 140 µM; kcat [4]: 1.7 ± 0.0897 s⁻¹; kcat/Km [4]: 1291 ± 154 M⁻¹ s⁻¹; kcat/Km [5]: 1.1 ± 0.28 M⁻¹ s⁻¹

B3: E. coli isopropylmalate isomerase LeuCD complex, Variant 59 (wt LeuC + L31V/H88A-LeuD; parents SEQ ID NO: 1 and SEQ ID NO: 2) (Escherichia coli K-12; H88A/L31V) (protein)
chain 1: B1 chain 1
chain 2: B1 chain 2 with G31V, H88A
notes: as for B1
**Q.** What does the source list for B3?
**A.** Km [6]: 2700 ± 400 µM; kcat [6]: 0.0606 ± 0.00611 s⁻¹; kcat/Km [6]: 23.1 ± 3.89 M⁻¹ s⁻¹; Km [7]: 3800 ± 900 µM; kcat [7]: 0.0506 ± 0.0103 s⁻¹; kcat/Km [7]: 13.9 ± 4.44 M⁻¹ s⁻¹

B4: E. coli isopropylmalate isomerase LeuCD complex, Variant 61 (wt LeuC + L31G/H88A-LeuD; parents SEQ ID NO: 1 and SEQ ID NO: 2) (Escherichia coli K-12; H88A/L31G) (protein)
chain 1: B1 chain 1
chain 2: B1 chain 2 with H88A
notes: as for B1
**Q.** What does the source list for B4?
**A.** kcat/Km [8]: 0.278 ± 0 M⁻¹ s⁻¹; kcat/Km [9]: 6.11 ± 0.56 M⁻¹ s⁻¹

B5: E. coli isopropylmalate isomerase LeuCD complex, Variant 1 (V35A-LeuC + wt LeuD; parents SEQ ID NO: 1 and SEQ ID NO: 2) (Escherichia coli K-12; V35A) (protein)
chain 1: B1 chain 1 with V48A
chain 2: B1 chain 2 with G31L
notes: as for B1
**Q.** How did the Km [10] turn out when B5 was run?
**A.** Its Km is 3900 ± 700 µM.

**Q.** What about the kcat [10] of the same protein?
**A.** The kcat was 0.151 ± 0.0231 s⁻¹.

**Q.** What about the kcat/Km [10] of the same protein?
**A.** The kcat/Km was 40.3 ± 9.44 M⁻¹ s⁻¹.

**Q.** What about the Km [11] of the same protein?
**A.** The Km was 3350 ± 750 µM.

**Q.** What about the kcat [11] of the same protein?
**A.** Its kcat is 0.0872 ± 0.0153 s⁻¹.

**Q.** And the kcat/Km [11]?
**A.** The kcat/Km was 27.2 ± 7.78 M⁻¹ s⁻¹.

B6: E. coli isopropylmalate isomerase LeuCD complex, Variant 5 (wt LeuC + L31A-LeuD; parents SEQ ID NO: 1 and SEQ ID NO: 2) (Escherichia coli K-12; L31A) (protein)
chain 1: B1 chain 1
chain 2: B1 chain 2 with G31A
notes: as for B1
**Q.** B6 was tested. Which Km [12] did it give?
**A.** Its Km is 1310 ± 140 µM.

**Q.** What about the kcat [12] of the same protein?
**A.** Its kcat is 0.3889 ± 0.0214 s⁻¹.

**Q.** What about the kcat/Km [12] of the same protein?
**A.** The kcat/Km was 299.2 ± 35.8 M⁻¹ s⁻¹.

**Q.** What about the Km [13] of the same protein?
**A.** Its Km is 1400 ± 600 µM.

**Q.** What about the kcat [13] of the same protein?
**A.** Its kcat is 0.00972 ± 0.0014 s⁻¹.

**Q.** What about the kcat/Km [13] of the same protein?
**A.** The kcat/Km was 8.06 ± 3.61 M⁻¹ s⁻¹.

B7: E. coli isopropylmalate isomerase LeuCD complex, Variant 9 (V35A-LeuC + L31G-LeuD; parents SEQ ID NO: 1 and SEQ ID NO: 2) (Escherichia coli K-12; L31G/V35A) (protein)
chain 1: B1 chain 1 with V48A
chain 2: B1 chain 2
notes: as for B1
**Q.** B7 was tested. Which kcat/Km [14] did it give?
**A.** Its kcat/Km is 0.56 ± 0 M⁻¹ s⁻¹.

**Q.** And the Km [15]?
**A.** The Km was 600 ± 34 µM.

**Q.** What about the kcat [15] of the same protein?
**A.** Its kcat is 0.0461 ± 0.0014 s⁻¹.

**Q.** What about the kcat/Km [15] of the same protein?
**A.** The kcat/Km was 78.6 ± 5 M⁻¹ s⁻¹.
